Positions of bridges follow the written chain, without caps; N, C: chain ends.
Tests used:
[1] = molecular target: T1, cJun (60 amino acid construct encompassing the entire bZIP domain) (UniProt P05412 252-315); test: CD thermal denaturation; peptide (5 μM) with cJun (5 μM); ellipticity at 222 nm, 1°C to 90°C; 20 mM potassium phosphate, 150 mM potassium fluoride, 2 mM TCEP, pH 7.4; two-state fit gives the Tm of the peptide-cJun heterodimer; duplicate experiments; conditions: both partners purified
[2] = molecular target: T1, cJun (60 amino acid construct …); test: cell-based or functional assay

T1 sequence (P05412 252-315): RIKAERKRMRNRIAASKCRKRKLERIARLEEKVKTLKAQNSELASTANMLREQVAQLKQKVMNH

| Binder | Tm of the peptide-cJun heterodimer [1] | IC50 CD: peptide added to pre-incubated cJun (20 μM) and TRE DNA (5 μM); blocks cJun/TRE DNA binding [2] |
| --- | --- | --- |
| Ac-EAKELVDEEDVLEEEIEQLEERNYALRKEIEDLQKQ-NH2 (linear form of the pair HW20/HW21; NΔ20 CΔ7; source: synthetic peptide (Fmoc SPPS, RP-HPLC purified)) [HW20] | 57.5 °C | 100 µM |
| Ac-EAEELVVEEKVLEDEIEQLEERNYALRKEIEDLQKQ-NH2 (linear form of the pair HW22/HW23; NΔ20 CΔ7; source: synthetic peptide (Fmoc SPPS, RP-HPLC purified)) [HW22] | 54.9 °C | 114 µM |
| Ac-EAKELVDEEDVLEEEIEQLEERNYALRKEIEDLQKQ-NH2 (lactam 3-7; SMILES CC[C@H](C)[C@H](NC(=O)[C@H](CCC(=O)O)NC(=O)[C@H](CCCCN)NC(=O)[C@H](CCCNC(=N)N)NC(=O)[C@H](CC(C)C)NC(=O)[C@H](C)NC(=O)[C@H](Cc1ccc(O)cc1)NC(=O)[C@H](CC(N)=O)NC(=O)[C@H](CCCNC(=N)N)NC(=O)[C@H](CCC(=O)O)NC(=O)[C@H](CCC(=O)O)NC(=O)[C@H](CC(C)C)NC(=O)[C@H](CCC(N)=O)NC(=O)[C@H](CCC(=O)O)NC(=O)[C@@H](NC(=O)[C@H](CCC(=O)O)NC(=O)[C@H](CCC(=O)O)NC(=O)[C@H](CCC(=O)O)NC(=O)[C@H](CC(C)C)NC(=O)[C@@H](NC(=O)[C@H](CC(=O)O)NC(=O)[C@H](CCC(=O)O)NC(=O)[C@H](CCC(=O)O)NC(=O)[C@@H]1CC(=O)NCCCC[C@H](NC(=O)[C@H](C)NC(=O)[C@H](CCC(=O)O)NC(C)=O)C(=O)N[C@@H](CCC(=O)O)C(=O)N[C@@H](CC(C)C)C(=O)N[C@@H](C(C)C)C(=O)N1)C(C)C)[C@@H](C)CC)C(=O)N[C@@H](CCC(=O)O)C(=O)N[C@@H](CC(=O)O)C(=O)N[C@@H](CC(C)C)C(=O)N[C@@H](CCC(N)=O)C(=O)N[C@@H](CCCCN)C(=O)N[C@@H](CCC(N)=O)C(N)=O, cyclized form of the pair HW20/HW21; NΔ20 CΔ7; source: synthetic peptide (Fmoc SPPS, on-resin lactamization, RP-HPLC purified)) [HW21] | 59.4 °C | 81.1 µM |
| Ac-EAEELVVEEDVLEEEIKQLEDRNYALRKEIEDLQKQ-NH2 (linear form of the pair HW24/HW25; NΔ20 CΔ7; source: synthetic peptide (Fmoc SPPS, RP-HPLC purified)) [HW24] | 55.5 °C | 98.9 µM |
| Ac-EAEELVVEEDVLEEEIEQLEERNYALRKEIEDLQ-NH2 (lactam 28-32, cyclized form of the pair HW16/HW17; NΔ20 CΔ9; source: synthetic peptide (Fmoc SPPS, on-resin lactamization, RP-HPLC purified)) [HW17] | 57.2 °C | 140 µM |
| Ac-LARENEELEKEAEELVVEEDVLEEEIEQLEERNYALRKEIEDLQKQLEKL-NH2 (truncation NΔ10 CΔ3 of HW1; source: synthetic peptide (Fmoc SPPS, RP-HPLC purified)) [HW2] | 68.5 °C | 16.6 µM |
| Ac-EAEELVVEEDVLEEEIEQLEEKNKALKDEIEDLY-NH2 (lactam 24-28; SMILES CC[C@H](C)[C@H](NC(=O)[C@H](CCC(=O)O)NC(=O)[C@@H]1CC(=O)NCCCC[C@H](NC(=O)[C@H](CC(N)=O)NC(=O)[C@H](CCCCN)NC(=O)[C@H](CCC(=O)O)NC(=O)[C@H](CCC(=O)O)NC(=O)[C@H](CC(C)C)NC(=O)[C@H](CCC(N)=O)NC(=O)[C@H](CCC(=O)O)NC(=O)[C@@H](NC(=O)[C@H](CCC(=O)O)NC(=O)[C@H](CCC(=O)O)NC(=O)[C@H](CCC(=O)O)NC(=O)[C@H](CC(C)C)NC(=O)[C@@H](NC(=O)[C@H](CC(=O)O)NC(=O)[C@H](CCC(=O)O)NC(=O)[C@H](CCC(=O)O)NC(=O)[C@@H](NC(=O)[C@@H](NC(=O)[C@H](CC(C)C)NC(=O)[C@H](CCC(=O)O)NC(=O)[C@H](CCC(=O)O)NC(=O)[C@H](C)NC(=O)[C@H](CCC(=O)O)NC(C)=O)C(C)C)C(C)C)C(C)C)[C@@H](C)CC)C(=O)N[C@@H](C)C(=O)N[C@@H](CC(C)C)C(=O)N[C@@H](CCCCN)C(=O)N1)C(=O)N[C@@H](CCC(=O)O)C(=O)N[C@@H](CC(=O)O)C(=O)N[C@@H](CC(C)C)C(=O)N[C@@H](Cc1ccc(O)cc1)C(N)=O, cyclized form of the pair HW14/HW15; NΔ20 CΔ10; source: synthetic peptide (Fmoc SPPS, on-resin lactamization, RP-HPLC purified)) [HW15] | 52.5 °C | 118 µM |
| Ac-LVVEEDVLEEEIEQLEEKNKALKDEIEDLQKQLEKLY-NH2 (linear form of the pair HW10/HW11; NΔ24 CΔ3 with point mutations for the bridging K and D; source: synthetic peptide (Fmoc SPPS, split batch, RP-HPLC purified)) [HW10] | 64.3 °C | 83.9 µM |
| Ac-KEAEDLVVEEDVLEEEIEQLEERNYALRKEIKDLQDQ-NH2 (lactam 1-5, cyclized form of the pair HW18/HW19; NΔ19 CΔ7; source: synthetic peptide (Fmoc SPPS, on-resin lactamization, RP-HPLC purified)) [HW19] | 58.5 °C | 92.5 µM |
| Ac-KEAEDLVVEEDVLEEEIEQLEERNYALRKEIKDLQDQ-NH2 (linear form of the pair HW18/HW19; NΔ19 CΔ7; source: synthetic peptide (Fmoc SPPS, RP-HPLC purified)) [HW18] | 56.5 °C | 115 µM |
| Ac-LVVEEDVLEEEIEQLEERNYALRKEIEDLQKQLEDL-NH2 (linear form of the pair HW12/HW13; NΔ24 CΔ3; source: synthetic peptide (Fmoc SPPS, split batch, RP-HPLC purified)) [HW12] | 62.1 °C | 94.6 µM |
| Ac-EAEELVVEEDVLEEEIEQLEERNYALRKEIEDLQ-NH2 (linear form of the pair HW16/HW17; NΔ20 CΔ9; source: synthetic peptide (Fmoc SPPS, RP-HPLC purified)) [HW16] | 53.8 °C | 725 µM |
| Ac-LVVEEDVLEEEIEQLEERNYALRKEIEDLQKQLEDL-NH2 (lactam 31-35, cyclized form of the pair HW12/HW13; NΔ24 CΔ3; source: synthetic peptide (Fmoc SPPS, on-resin lactamization, RP-HPLC purified)) [HW13] | 68.3 °C | 69 µM |
| Ac-LVVEEDVLEEEIEQLEEKNKALKDEIEDLQKQLEKLY-NH2 (lactam 20-24; SMILES CC[C@H](C)[C@H](NC(=O)[C@H](CCC(=O)O)NC(=O)[C@@H]1CC(=O)NCCCC[C@H](NC(=O)[C@H](CC(N)=O)NC(=O)[C@H](CCCCN)NC(=O)[C@H](CCC(=O)O)NC(=O)[C@H](CCC(=O)O)NC(=O)[C@H](CC(C)C)NC(=O)[C@H](CCC(N)=O)NC(=O)[C@H](CCC(=O)O)NC(=O)[C@@H](NC(=O)[C@H](CCC(=O)O)NC(=O)[C@H](CCC(=O)O)NC(=O)[C@H](CCC(=O)O)NC(=O)[C@H](CC(C)C)NC(=O)[C@@H](NC(=O)[C@H](CC(=O)O)NC(=O)[C@H](CCC(=O)O)NC(=O)[C@H](CCC(=O)O)NC(=O)[C@@H](NC(=O)[C@@H](NC(=O)[C@H](CC(C)C)NC(C)=O)C(C)C)C(C)C)C(C)C)[C@@H](C)CC)C(=O)N[C@@H](C)C(=O)N[C@@H](CC(C)C)C(=O)N[C@@H](CCCCN)C(=O)N1)C(=O)N[C@@H](CCC(=O)O)C(=O)N[C@@H](CC(=O)O)C(=O)N[C@@H](CC(C)C)C(=O)N[C@@H](CCC(N)=O)C(=O)N[C@@H](CCCCN)C(=O)N[C@@H](CCC(N)=O)C(=O)N[C@@H](CC(C)C)C(=O)N[C@@H](CCC(=O)O)C(=O)N[C@@H](CCCCN)C(=O)N[C@@H](CC(C)C)C(=O)N[C@@H](Cc1ccc(O)cc1)C(N)=O, cyclized form of the pair HW10/HW11; NΔ24 CΔ3; source: synthetic peptide (Fmoc SPPS, on-resin lactamization, RP-HPLC purified)) [HW11] | 67.2 °C | 73.5 µM |
